Reference: patent US20170028070A1

Test system: HER2 epitope peptide
Settings: 5'-H2N-(CH2)6; doxorubicin intercalated, Dox:aptamer 10:1; apparent Kd from doxorubicin fluorescence release upon epitope binding; Dox molar ratio 10

**Q.** Which Kd does the source give for “AACCGCCCAAATCCCTAAGAGTCTGCACTTGTCATTTTGTATATGTATTTGGTTTTTGGCTCTCACAGACACACTACACACGCACA [Dox-loaded anti-HER2 aptamer]” here?
**A.** The Kd was 0.05 µM.
